Test results taken from patent publication US20020037514A1, “Identification of nuclear receptor-dependent coregulator recruitment” (priority 2000, published 2002).

Molecular target: T1, RARα-V5/RXRγ/DR-5 ternary complex (Homo sapiens, UniProt P10276)
T1 construct: the nuclear receptor subunits used in the invention are full length nuclear receptor monomer subunits; expressed in transfected cells; host or cells: CV-1 (green monkey kidney), whole-cell lysate
T1 sequence (P10276 1-462): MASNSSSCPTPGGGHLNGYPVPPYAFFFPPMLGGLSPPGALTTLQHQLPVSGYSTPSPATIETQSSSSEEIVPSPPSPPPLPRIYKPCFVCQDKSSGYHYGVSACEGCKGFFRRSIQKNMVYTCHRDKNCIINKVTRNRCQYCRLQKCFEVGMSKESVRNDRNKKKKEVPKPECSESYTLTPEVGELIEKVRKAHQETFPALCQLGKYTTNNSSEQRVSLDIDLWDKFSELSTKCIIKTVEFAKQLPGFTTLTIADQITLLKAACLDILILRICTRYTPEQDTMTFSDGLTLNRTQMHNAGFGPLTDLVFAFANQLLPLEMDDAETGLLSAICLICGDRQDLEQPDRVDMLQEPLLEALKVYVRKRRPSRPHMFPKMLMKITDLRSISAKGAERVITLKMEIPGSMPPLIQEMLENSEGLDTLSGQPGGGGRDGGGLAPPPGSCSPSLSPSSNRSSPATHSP
T1 sequence (P28705 1-463 partner): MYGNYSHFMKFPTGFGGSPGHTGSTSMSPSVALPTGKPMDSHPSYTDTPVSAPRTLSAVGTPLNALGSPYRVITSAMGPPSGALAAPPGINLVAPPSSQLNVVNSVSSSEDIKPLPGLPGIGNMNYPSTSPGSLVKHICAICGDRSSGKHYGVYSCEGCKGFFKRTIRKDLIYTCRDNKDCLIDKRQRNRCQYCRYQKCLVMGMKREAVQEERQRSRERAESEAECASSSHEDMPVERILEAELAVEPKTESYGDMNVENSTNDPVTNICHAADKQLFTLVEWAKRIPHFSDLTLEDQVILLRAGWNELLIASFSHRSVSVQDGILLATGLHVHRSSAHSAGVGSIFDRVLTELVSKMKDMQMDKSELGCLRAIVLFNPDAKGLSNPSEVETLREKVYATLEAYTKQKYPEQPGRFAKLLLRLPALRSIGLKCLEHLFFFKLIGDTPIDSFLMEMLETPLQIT
Assay: LXD peptide competition of ATRA-induced co-activator recruitment (Example 7, FIG. 8A)
Assay type: biochemical
Conditions: SRC-1 peptides at 40 μl (so in the source), DR-5 RARE
From the text: Nolte, R. T. et al., Nature 395:137-143 (1998). We addressed the importance of each of the three LXDs in mediating co-activator-receptor interaction using synthetic peptides comprising the LXD1, LXD2 or LXD3 amino acid sequences as competitors with SRC-1 in the DNA modified immunoprecipitation methods of the present invention. These peptides have the following amino acid sequences (with the characteristic LXXLL motif shown in bold):
Transfection, DR-5 oligonucleotide treatment, ligand treatment, immunoprecipitation and detection of associated co-factors were performed essentially as shown in the previous Examples. CV-1 cells were transfected with plasmids expressing either RARα/RXRγ-V5 or with RARγ/RXRα-V5. Synthetic LXD peptides were added to the cell lysate before the addition of retinoids at a concentration of 20 (ACTR) and 40 (SRC-1) […].

SLTERHKILHRLLQEGSPSDIT (Nuclear co-activator LXD-containing peptide) [SRC-1 LXD2]
effect of peptide on ATRA-induced recruitment of SRC-1: completely abolished
